We go through 84 variants from the RNAGym collection of RNA variant scans (doi:10.1021/acssynbio.7b00057).

Sequences and labels used below:
B1: Pistol ribozyme (parent)
chain: GGGUCGUUGUUCCAUAAUCGCGUGGAUAUGGCACGCAAGUUUCUACCGGGCACCGUAAAUGUCCGACUGGAGCCGUUCGGGCGGCUAUAAACAGACCUCAGGCCCGAAGCGUGGCGGCACCUGCCGCCGGUGGUAAAAAAGAUCGGAAGAGCACACGUCU

The data set covers variants of B1. Description: aptazyme ON/OFF ratio, guanine; higher = stronger switching; co-transcriptional cleavage with and without guanine.
On to U8G G9U U10C U11G C12A C13A, for which the “aptazyme ON/OFF ratio” value came to 1.14.

On to U8G G9U U10C U11G C12A C13U, for which the “aptazyme ON/OFF ratio” value is 1.12.

In the case of U8G G9U U10A U11C C13G, the “aptazyme ON/OFF ratio” value is 1.03.

Consider U8G G9U U10A U11C C13U, for which the “aptazyme ON/OFF ratio” value was 1.01.

On to U8G G9U U11A C12G C13A, for which the “aptazyme ON/OFF ratio” value stood at 1.13.

For U8G G9U U11A C12G C13G, the “aptazyme ON/OFF ratio” value worked out at 1.23.

As for U8G G9U U11A C12G C13U, the “aptazyme ON/OFF ratio” value stood at 1.18.

Turning to U8G G9U U10G U11A, the “aptazyme ON/OFF ratio” value was found to be 1.09.

For U8G G9U U10G U11C, the “aptazyme ON/OFF ratio” value was determined as 1.02.

As to U8G G9U U10G U11G, the “aptazyme ON/OFF ratio” value came to 1.07.

Regarding U8G G9U U10C U11A, the “aptazyme ON/OFF ratio” value stood at 1.27.

In the case of U8G G9U U10C U11G, the “aptazyme ON/OFF ratio” value was determined as 1.15.

Consider U8G G9U U10C U11C, for which the “aptazyme ON/OFF ratio” value was 1.05.

Consider U8G G9U U10G U11C C12G, for which the “aptazyme ON/OFF ratio” value came out at 1.03.

Take U8G G9U U10G U11C C12U: the “aptazyme ON/OFF ratio” value amounted to 1.04.

In the case of U8G G9U U10G U11C C12A, the “aptazyme ON/OFF ratio” value stood at 1.02.

In the case of U8G G9U U10G C12G, the “aptazyme ON/OFF ratio” value came to 1.02.

Regarding U8G G9U U10G C12A, the “aptazyme ON/OFF ratio” value stood at 1.04.

With U8G G9U U10G C12U, the “aptazyme ON/OFF ratio” value was 1.02.

Turning to U8G G9U U10C U11G C13A, the “aptazyme ON/OFF ratio” value turned out to be 1.04.

As to U8G G9U U10C U11G C13U, the “aptazyme ON/OFF ratio” value stood at 1.03.

On to U8G G9U U10C U11G C13G, for which the “aptazyme ON/OFF ratio” value is 1.03.

Turning to U8G G9U U10G U11G C12A C13U, the “aptazyme ON/OFF ratio” value was found to be 1.05.

Consider U8G G9U U10G U11G C12A C13A, for which the “aptazyme ON/OFF ratio” value was found to be 1.07.

Regarding U8G G9U U10G U11G C12A C13G, the “aptazyme ON/OFF ratio” value came to 1.08.

U8G G9U U10G U11A C12G C13G: the “aptazyme ON/OFF ratio” value came out at 1.17.

Consider U8G G9U U10G U11A C12G C13U, for which the “aptazyme ON/OFF ratio” value came to 1.04.

As to U8G G9U U10G U11A C12G C13A, the “aptazyme ON/OFF ratio” value came to 1.05.

Take U8G G9U U10G U11A C12U: the “aptazyme ON/OFF ratio” value worked out at 1.03.

Consider U8G G9U U10G U11A C12G, for which the “aptazyme ON/OFF ratio” value came out at 1.06.

As to U8G G9U U10G U11A C12A, the “aptazyme ON/OFF ratio” value stood at 1.08.

With U8G G9U U10C C12U C13A, the “aptazyme ON/OFF ratio” value is 1.11.

In the case of U8G G9U U10C C12U C13G, the “aptazyme ON/OFF ratio” value was found to be 1.08.

For the variant U8G G9U U10C C12U C13U, the “aptazyme ON/OFF ratio” value came out at 1.2.

Regarding U8G G9U U10G U11G C12G C13G, the “aptazyme ON/OFF ratio” value was determined as 1.17.

Consider U8G G9U U10G U11G C12G C13A, for which the “aptazyme ON/OFF ratio” value came out at 1.07.

As for U8G G9U U10G U11G C12G C13U, the “aptazyme ON/OFF ratio” value is 1.09.

Consider U8G G9U U10C U11C C12G, for which the “aptazyme ON/OFF ratio” value turned out to be 1.02.

Turning to U8G G9U U10C U11C C12U, the “aptazyme ON/OFF ratio” value came out at 1.03.

Turning to U8G G9U U10C U11C C12A, the “aptazyme ON/OFF ratio” value amounted to 1.04.

As to U8G G9U U11A, the “aptazyme ON/OFF ratio” value stood at 1.73.

As to U8G G9U U11C, the “aptazyme ON/OFF ratio” value amounted to 1.24.

For U8G G9U U10C C13U, the “aptazyme ON/OFF ratio” value worked out at 1.03.

As to U8G G9U U10C C13G, the “aptazyme ON/OFF ratio” value amounted to 1.03.

U8G G9U U10C C13A: the “aptazyme ON/OFF ratio” value stood at 1.04.

U8G G9U U10G C12G C13U: the “aptazyme ON/OFF ratio” value came out at 1.02.

On to U8G G9U U10G C12G C13G, for which the “aptazyme ON/OFF ratio” value is 1.05.

For the variant U8G G9U U10G C12G C13A, the “aptazyme ON/OFF ratio” value is 1.02.

Turning to U8G G9U U10G U11C C12U C13U, the “aptazyme ON/OFF ratio” value was determined as 1.03.

In the case of U8G G9U U10G U11C C12U C13A, the “aptazyme ON/OFF ratio” value came out at 1.03.

As for U8G G9U U10G U11C C12U C13G, the “aptazyme ON/OFF ratio” value was determined as 1.03.

In the case of U8G G9U U10C U11G C12G C13A, the “aptazyme ON/OFF ratio” value worked out at 1.15.

For U8G G9U U10C U11G C12G C13G, the “aptazyme ON/OFF ratio” value turned out to be 1.14.

In the case of U8G G9U U10C U11G C12G C13U, the “aptazyme ON/OFF ratio” value was 1.08.

In the case of U8G G9U U10C U11A C12G C13U, the “aptazyme ON/OFF ratio” value amounted to 1.16.

For U8G G9U U10C U11A C12G C13G, the “aptazyme ON/OFF ratio” value worked out at 1.14.

With U8G G9U U10C U11A C12G C13A, the “aptazyme ON/OFF ratio” value turned out to be 1.08.

On to U8G G9U U10C U11G C12U C13A, for which the “aptazyme ON/OFF ratio” value was 1.09.

In the case of U8G G9U U10C U11G C12U C13U, the “aptazyme ON/OFF ratio” value was 1.24.

In the case of U8G G9U U10C U11G C12U C13G, the “aptazyme ON/OFF ratio” value was found to be 1.09.

As for U8G G9U U10G C12A C13U, the “aptazyme ON/OFF ratio” value worked out at 1.05.

As for U8G G9U U10G C12A C13G, the “aptazyme ON/OFF ratio” value is 1.04.

In the case of U8G G9U U10G C12A C13A, the “aptazyme ON/OFF ratio” value worked out at 1.03.

Take U8G G9U U10G: the “aptazyme ON/OFF ratio” value was 1.07.

Turning to U8G G9U U10C, the “aptazyme ON/OFF ratio” value is 1.51.

In the case of U8G G9U U10C U11A C13A, the “aptazyme ON/OFF ratio” value is 1.06.

On to U8G G9U U10C U11A C13G, for which the “aptazyme ON/OFF ratio” value came to 1.04.

On to U8G G9U U10C U11A C13U, for which the “aptazyme ON/OFF ratio” value was 1.12.

As for U8G G9U U10G U11C C12A C13A, the “aptazyme ON/OFF ratio” value was 1.02.

On to U8G G9U U10G U11C C12A C13G, for which the “aptazyme ON/OFF ratio” value was found to be 1.02.

Turning to U8G G9U U10G U11C C12A C13U, the “aptazyme ON/OFF ratio” value was 1.03.

As to U8G G9U U10G U11A C12A C13U, the “aptazyme ON/OFF ratio” value was determined as 1.03.

As to U8G G9U U10G U11A C12A C13A, the “aptazyme ON/OFF ratio” value worked out at 1.04.

As for U8G G9U U10G U11A C12A C13G, the “aptazyme ON/OFF ratio” value turned out to be 1.03.

With U8G G9U U10C U11C C12U C13U, the “aptazyme ON/OFF ratio” value came out at 1.06.

With U8G G9U U10C U11C C12U C13A, the “aptazyme ON/OFF ratio” value was 1.02.

Take U8G G9U U10C U11C C12U C13G: the “aptazyme ON/OFF ratio” value turned out to be 1.02.

Consider U8G G9U U10A U11G C13A, for which the “aptazyme ON/OFF ratio” value was 1.09.

In the case of U8G G9U U10A U11G C13U, the “aptazyme ON/OFF ratio” value amounted to 1.04.

Turning to U8G G9U U10A U11G C13G, the “aptazyme ON/OFF ratio” value was determined as 1.03.

Consider U8G G9U U10G U11G C13A, for which the “aptazyme ON/OFF ratio” value amounted to 1.04.

On to U8G G9U U10G U11G C13U, for which the “aptazyme ON/OFF ratio” value was determined as 1.02.

Take U8G G9U U10G U11G C13G: the “aptazyme ON/OFF ratio” value stood at 1.03.

Regarding U8G G9U U11C C12A, the “aptazyme ON/OFF ratio” value is 1.12.
